B1: dsDNA-Cy3 (dsDNA)
DNA 1: AGGGTCTCCATTTTGAAGCATGC
DNA 2: GCATGCTTCAAAATGGAGACCCT
B2: dsRNA-Cy3 (dsRNA)
RNA 1: AGGGUCUCCAUUUUGAAGCAUGC
RNA 2: GCAUGCUUCAAAAUGGAGACCCU

Biological target: T1, ec73-CTD12;ec100-CTD12 (Encephalitozoon …, UniProt Q8SUE4;M1JIZ1 452-567;525-639, |)
T1 sequence 1: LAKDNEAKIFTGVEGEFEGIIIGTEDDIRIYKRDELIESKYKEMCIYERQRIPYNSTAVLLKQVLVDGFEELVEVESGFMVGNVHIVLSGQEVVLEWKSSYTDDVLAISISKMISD
T1 sequence 2: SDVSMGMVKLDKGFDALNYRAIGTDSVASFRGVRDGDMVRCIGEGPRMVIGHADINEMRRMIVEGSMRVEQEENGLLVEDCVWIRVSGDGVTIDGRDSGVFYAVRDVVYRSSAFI
Assay: EMSA; 50 uM protein, 500 nM nucleic acid; NMR also negative (NMR ligands not specified); EMSA: 20 mM Tris pH 7.5, 150 mM potassium acetate, 1 mM EDTA, 10% glycerol; 30 min incubation; 10% Tris-glycine gel (running buffer 27 mM Tris, 192 mM glycine)
Conditions: protein: recombinant;recombinant, copies: 1;1

[1] = label: 3' Cy3 on forward strand, blunt

Binder	binding result (label: 3' Cy3, single strand)	binding result [1]
AGGGTCTCCATTTTGAAGCATGC (ssDNA) [ssDNA-Cy3]	no binding	
B1		no binding
B2		no binding
AGGGUCUCCAUUUUGAAGCAUGC (ssRNA) [ssRNA-Cy3]	no binding	

Source: publication PMC10688271, “Molecular details of the CPSF73-CPSF100 C-terminal heterodimer and interaction with Symplekin”
